Assay results taken from patent US20070054353A1, “Nuclear receptor transcriptional corepressor and uses thereof” (priority 2002, published 2007).
Substitutions are numbered along the chain they refer to.

Columns and labels:
Format in all cases: cell-based
ERα = biological target: T1, ERα (Homo sapiens, UniProt P03372); assay: Transient transfection luciferase reporter, ERα transactivation in COS-7 cells; conditions: coexpression in COS-7 cells, 10^−7M hormone, ERE3-TATA-pXP2 reporter
T1 construct: expressed in transfected cells; host or cells: COS-7
T1 sequence (P03372 1-595): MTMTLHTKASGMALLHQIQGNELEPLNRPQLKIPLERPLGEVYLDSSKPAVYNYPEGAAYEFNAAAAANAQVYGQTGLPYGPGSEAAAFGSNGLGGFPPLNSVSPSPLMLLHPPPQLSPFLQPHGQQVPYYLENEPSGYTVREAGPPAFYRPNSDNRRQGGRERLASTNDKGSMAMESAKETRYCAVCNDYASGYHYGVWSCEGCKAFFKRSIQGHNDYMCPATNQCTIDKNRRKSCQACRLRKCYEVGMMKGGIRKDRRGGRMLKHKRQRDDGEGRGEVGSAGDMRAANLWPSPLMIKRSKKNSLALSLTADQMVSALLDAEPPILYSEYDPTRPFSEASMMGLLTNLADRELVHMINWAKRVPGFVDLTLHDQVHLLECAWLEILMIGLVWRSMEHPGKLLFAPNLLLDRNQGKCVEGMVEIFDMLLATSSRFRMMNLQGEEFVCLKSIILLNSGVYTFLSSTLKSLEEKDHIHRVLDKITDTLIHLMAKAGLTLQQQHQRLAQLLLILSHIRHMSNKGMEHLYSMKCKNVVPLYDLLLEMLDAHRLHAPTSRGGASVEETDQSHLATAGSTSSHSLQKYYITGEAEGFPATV
Experimental: (§1) All cell lines were cultured under the recommended conditions. COS-7 cells grown in […] in DMEM without phenol red, supplemented with 10% FBS were transfected in medium without serum with lipofectamine 2000 (Invitrogen, Burlington, Ont.) with 100 ng of nuclear receptor expression vectors as indicated, 200 ng of TIF-2 or TIF-2.1, as indicated, 250 ng of reporter plasmid, 250 ng of infemal control vector pCMV-βgal, and various concentrations of LCoR/pSG5 or LCoR-LSKAA/pSG5 expression vectors and pSG5 carrier. Medium was replaced 24 h after transfection by a medium containing charcoal-stripped serum and ligand (100 nM) and TSA (3 μM) for 18 h, as indicated. Cells were harvested in 200 […] of reporter lysis buffer (Promega).
(§2) COS-7 cells were cotransfected with expression vectors for ERα HEG0 (A and C) or GR (D) or PR (F) or VDR (H), ERE3-TATA-pXP2 (A and C), GRE5/pXP2 (D and F) or VDRE3tk/pXP2 (H) luciferase reporter vectors, pCMV-β-gal as internal control, and LCoR/pSG5 or LSKAA/pSG5 expression vectors as indicated. Cells were treated with 10^−7M of hormones (solid bars) or vehicle (open bars). Normalized luciferase activities (RLU) are the means±SEM from at least 3 experiments. […] Cells were transfected as in FIG. 5A with LCoR, TIF-2 or TIF2.1 as indicated. […]

GR = biological target: T2, GR (Homo sapiens, UniProt P04150); assay: Transient transfection luciferase reporter, GR transactivation in COS-7 cells; conditions: 1 μg of transfected LCoR, COS-7; one range given for GR, PR and VDR together
T2 construct: expressed in transfected cells; host or cells: COS-7
T2 sequence (P04150 1-777): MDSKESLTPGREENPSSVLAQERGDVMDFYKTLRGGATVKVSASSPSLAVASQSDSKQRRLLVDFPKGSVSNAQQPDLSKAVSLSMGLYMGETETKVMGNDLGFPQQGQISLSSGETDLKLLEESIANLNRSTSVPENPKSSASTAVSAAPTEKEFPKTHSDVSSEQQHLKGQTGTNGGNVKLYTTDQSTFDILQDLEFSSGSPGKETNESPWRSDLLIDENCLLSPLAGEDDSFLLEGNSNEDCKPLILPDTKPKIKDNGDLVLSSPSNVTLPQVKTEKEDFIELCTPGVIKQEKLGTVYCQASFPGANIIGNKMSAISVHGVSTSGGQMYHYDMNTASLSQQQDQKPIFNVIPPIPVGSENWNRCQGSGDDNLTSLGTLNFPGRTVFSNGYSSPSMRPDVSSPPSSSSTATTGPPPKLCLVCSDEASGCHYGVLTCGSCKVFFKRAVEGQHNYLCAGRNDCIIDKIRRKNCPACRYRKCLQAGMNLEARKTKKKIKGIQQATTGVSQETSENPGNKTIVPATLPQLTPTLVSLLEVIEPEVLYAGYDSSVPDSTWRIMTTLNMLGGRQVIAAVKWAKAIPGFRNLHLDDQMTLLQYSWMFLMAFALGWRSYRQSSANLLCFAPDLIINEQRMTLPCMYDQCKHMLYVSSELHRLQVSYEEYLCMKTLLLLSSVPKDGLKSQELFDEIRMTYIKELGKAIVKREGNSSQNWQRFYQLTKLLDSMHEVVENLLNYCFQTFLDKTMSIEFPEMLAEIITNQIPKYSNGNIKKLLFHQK
Experimental: as §1, §2

PR = biological target: T3, PR (Homo sapiens, UniProt P06401); assay: Transient transfection luciferase reporter, PR transactivation in COS-7 cells; conditions: 1 μg of transfected LCoR, COS-7; one range given for GR, PR and VDR together
T3 construct: expressed in transfected cells; host or cells: COS-7
T3 sequence (P06401 1-933): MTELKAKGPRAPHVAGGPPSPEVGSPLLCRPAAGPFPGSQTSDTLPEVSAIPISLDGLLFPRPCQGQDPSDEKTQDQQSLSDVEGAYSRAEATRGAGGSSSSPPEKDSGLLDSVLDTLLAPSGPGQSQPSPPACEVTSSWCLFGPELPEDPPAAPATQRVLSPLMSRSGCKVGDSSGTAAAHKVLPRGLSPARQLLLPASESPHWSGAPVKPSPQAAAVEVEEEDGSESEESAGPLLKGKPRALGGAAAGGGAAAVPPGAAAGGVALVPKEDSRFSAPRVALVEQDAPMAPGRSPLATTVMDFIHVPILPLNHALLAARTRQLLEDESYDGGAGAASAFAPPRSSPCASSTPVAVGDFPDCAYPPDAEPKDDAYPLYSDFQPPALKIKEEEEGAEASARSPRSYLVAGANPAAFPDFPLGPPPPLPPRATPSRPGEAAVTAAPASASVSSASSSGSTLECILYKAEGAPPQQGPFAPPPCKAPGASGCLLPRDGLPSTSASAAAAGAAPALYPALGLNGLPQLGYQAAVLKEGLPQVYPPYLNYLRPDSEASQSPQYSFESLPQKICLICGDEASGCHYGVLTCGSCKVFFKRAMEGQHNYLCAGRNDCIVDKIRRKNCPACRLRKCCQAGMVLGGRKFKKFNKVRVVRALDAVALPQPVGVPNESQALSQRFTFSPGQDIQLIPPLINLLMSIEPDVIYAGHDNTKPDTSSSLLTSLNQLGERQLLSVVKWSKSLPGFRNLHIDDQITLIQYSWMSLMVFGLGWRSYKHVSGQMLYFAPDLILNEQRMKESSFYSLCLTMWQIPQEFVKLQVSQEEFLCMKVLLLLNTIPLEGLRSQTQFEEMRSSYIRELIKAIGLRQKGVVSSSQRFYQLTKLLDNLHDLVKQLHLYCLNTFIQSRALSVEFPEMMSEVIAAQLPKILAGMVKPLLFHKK
Experimental: as §1, §2

VDR = biological target: T4, VDR (Homo sapiens, UniProt P11473); assay: Transient transfection luciferase reporter, VDR transactivation in COS-7 cells; conditions: 1 μg of transfected LCoR, COS-7; one range given for GR, PR and VDR together
T4 construct: expressed in transfected cells; host or cells: COS-7
T4 sequence (P11473 1-427): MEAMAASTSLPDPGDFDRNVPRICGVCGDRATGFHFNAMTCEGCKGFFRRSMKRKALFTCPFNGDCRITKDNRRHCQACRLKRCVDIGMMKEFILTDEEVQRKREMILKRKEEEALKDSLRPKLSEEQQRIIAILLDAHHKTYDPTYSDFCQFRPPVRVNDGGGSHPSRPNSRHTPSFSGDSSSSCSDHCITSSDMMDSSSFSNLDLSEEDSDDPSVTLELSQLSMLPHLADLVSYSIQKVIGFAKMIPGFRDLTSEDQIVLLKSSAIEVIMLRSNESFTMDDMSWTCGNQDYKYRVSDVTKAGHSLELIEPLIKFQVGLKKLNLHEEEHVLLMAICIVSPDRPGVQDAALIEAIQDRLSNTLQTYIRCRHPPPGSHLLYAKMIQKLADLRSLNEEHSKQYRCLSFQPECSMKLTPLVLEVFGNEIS
Experimental: as §1, §2

5×17 mer-tk promoter = assay: GAL4-LCoR repression of 5×17 mer-tk promoter in COS-7 cells
Experimental: as §1, §2

nuclear receptors = assay: Ligand-dependent transactivation by nuclear receptors (summary)
Experimental: as §1, §2

[1] = biological target: T5, interaction of LCoR and ERα (Homo sapiens, UniProt P03372); assay: BRET assay of LCoR-ERα interaction in living COS-7 cells; conditions: rluc-LCoR-LSKAA versus rluc-LCoR, COS-7 cells
T5 construct: expressed in transfected cells; host or cells: COS-7
T5 sequence (P03372 1-595): T1 sequence (P03372 1-595)
Experimental: Readings were started immediately after coelenterazine H addition, and 10 repeated measures were taken.
Interaction of ERα and LCoR in vivo was further tested by bioluminescence resonance energy transfer (BRET) in living COS-7 cells transiently cotransfected with plasmids expressing ERα-EYFP and LCoR-rluc fusion proteins. […] BRET ratios were calculated as described in experimental procedures.

B1: LCoR: novel 433 amino acid nuclear receptor corepressor polypeptide (SEQ ID NO:2) with a single LXXLL NR box (protein, listed as Homo sapiens)
chain: MQRMIQQFAAEYTSKNSSTQDPSQPNSTKNQSLPKASPVTTSPTAATTQNPVLSKLLMADQDSPLDLTVRKSQSEPSEQDGVLDLSTKKSPCAGSTSLSHSPGCSSTQGNGRPGRPSQYRPDGLRSGDGVPPRSLQDGTREGFGHSTSLKVPLARSLQISEELLSRNQLSTAASLGPSGLQNHGQHLILSREASWAKPHYEFNLSRMKFRGNGALSNISDLPFLAENSAFPKMALQAKQDGKKDVSHSSPVDLKIPQVRGMDLSWESRTGDQYSYSSLVMGSQTESALSKKLRAILPKQSRKSMLDAGPDSWGSDAEQSTPGQPYPTSDQEGDPGSKQPRKKRGRYRQYNSEILEEAISVVMSGKMSVSKAQSIYGIPHSTLEYKVKERLGTLKNPPKKKMKLMRSEGPDVSVKIELDPQGEAAQSANESKNE
ERα
  repression of hormone-dependent transactivation by ERα: dose-dependent repression
GR
  repression of ligand-activated transcription, glucocorticoid receptor: 2.2-5 fold
PR
  repression of ligand-activated transcription, progesterone receptor: 2.2-5 fold
VDR
  repression of ligand-activated transcription, vitamin D receptor: 2.2-5 fold
5×17 mer-tk promoter
  effect on the 5×17 mer-tk promoter: had no effect
Nuclear receptors
  inhibition of ligand-dependent transactivation by nuclear receptors: up to 5 fold

B2: LCoR-LSKAA: LCoR with point mutagenesis of NR box LSKLL to LSKAA at position 53 (protein)
chain: B1 chain with L56A, L57A
[1]
  effect of NR box mutation on interaction with ERα (BRET): largely disrupted hormone-dependent interaction and reduced hormone-independent interaction of the two proteins by approximately two-fold
ERα
  repression of hormone-dependent transactivation by ERα: had no effect
